{"source": "IntAct's records for PubMed 11846417", "key": {"[1]": {"molecular_target": "telt_human TCAP (UniProt O15273)", "sequence (O15273 whole entry)": "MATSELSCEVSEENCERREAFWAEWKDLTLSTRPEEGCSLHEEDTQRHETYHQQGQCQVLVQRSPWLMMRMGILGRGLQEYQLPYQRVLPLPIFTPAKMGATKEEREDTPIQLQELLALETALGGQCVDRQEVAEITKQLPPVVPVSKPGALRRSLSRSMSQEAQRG"}, "[2]": {"molecular_target": "actn2_human ACTN2 (UniProt P35609)", "sequence (P35609 whole entry)": "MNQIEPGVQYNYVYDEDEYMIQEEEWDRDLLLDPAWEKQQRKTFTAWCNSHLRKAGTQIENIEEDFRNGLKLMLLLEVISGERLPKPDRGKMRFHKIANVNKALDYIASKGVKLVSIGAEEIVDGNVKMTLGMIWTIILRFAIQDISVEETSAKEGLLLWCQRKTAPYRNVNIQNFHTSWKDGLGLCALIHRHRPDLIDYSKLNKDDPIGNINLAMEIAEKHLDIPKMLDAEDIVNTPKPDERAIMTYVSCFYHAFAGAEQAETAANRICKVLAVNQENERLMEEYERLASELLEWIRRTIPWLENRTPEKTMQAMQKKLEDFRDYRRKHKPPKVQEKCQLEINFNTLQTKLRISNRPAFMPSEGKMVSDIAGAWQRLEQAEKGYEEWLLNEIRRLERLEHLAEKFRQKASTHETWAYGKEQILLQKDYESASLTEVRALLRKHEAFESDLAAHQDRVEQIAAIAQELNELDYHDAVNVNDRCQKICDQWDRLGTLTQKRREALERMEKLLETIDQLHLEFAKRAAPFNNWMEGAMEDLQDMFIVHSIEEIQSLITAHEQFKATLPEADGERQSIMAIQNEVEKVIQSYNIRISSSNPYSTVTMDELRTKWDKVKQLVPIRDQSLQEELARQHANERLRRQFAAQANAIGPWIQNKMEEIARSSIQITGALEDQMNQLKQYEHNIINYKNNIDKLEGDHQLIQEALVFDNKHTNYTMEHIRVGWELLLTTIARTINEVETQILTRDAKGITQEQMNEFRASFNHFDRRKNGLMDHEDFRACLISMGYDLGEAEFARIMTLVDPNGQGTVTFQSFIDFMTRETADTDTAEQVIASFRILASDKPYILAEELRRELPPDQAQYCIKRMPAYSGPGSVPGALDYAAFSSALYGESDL"}}}
{"substance": "Titin (Homo sapiens), Q8WZ42 V54M", "values": [{"measurement": "effect of a mutation on the interaction", "setting": "[1]", "value": "decreasing interaction"}]}
{"substance": "Titin (Homo sapiens), Q8WZ42 A743V", "values": [{"measurement": "effect of a mutation on the interaction", "setting": "[2]", "value": "decreasing interaction"}]}
